± gives the standard error. For part of these data: Variants at the floor of the assay were thinned out.
B1: glmS ribozyme (parent)
chain: AUAAAAGCGCCAGAACUACAGAAAUGUAGUUGACGAGGAGGAGGUUUAUCGAAUUUUCGGCGGAUGCCUCCAAA

Assays:
Details in all cases: with glucosamine-6-phosphate
glucosamine-6-phosphate [1] = variants of: B1; test: kcat; higher = faster cleavage; RNA array
Method in brief: (§1)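 Glucosamine-6-phosphate in HEPES/KCl/Mg(OAc)2 buffer, at 40 μM to 10 mM, was flowed over barcoded ribozyme variants transcribed in situ by E. coli RNA polymerase on sequenced MiSeq chips. Tracking was through a hybridised Cy3 probe at 37 °C. kobs, kcat and KM came from exponential decay fits and weighted Michaelis–Menten fits of normalised per-tile medians.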

glucosamine-6-phosphate [2] = variants of: B1; test: KM; higher = weaker cofactor use; RNA array
Method in brief: as §1

glucosamine-6-phosphate [3] = variants of: B1; test: self-cleavage kobs at 40 uM GlcN6P; higher = faster cleavage; RNA array
Method in brief: as §1

glucosamine-6-phosphate [4] = variants of: B1; test: self-cleavage kobs at 160 uM GlcN6P; higher = faster cleavage; RNA array
Method in brief: as §1

glucosamine-6-phosphate [5] = variants of: B1; test: self-cleavage kobs at 640 uM GlcN6P; higher = faster cleavage; RNA array
Method in brief: as §1

glucosamine-6-phosphate [6] = variants of: B1; test: self-cleavage kobs at 2500 uM GlcN6P; higher = faster cleavage; RNA array
Method in brief: as §1

glucosamine-6-phosphate [7] = variants of: B1; test: self-cleavage kobs at 10000 uM GlcN6P; higher = faster cleavage; RNA array
Method in brief: as §1

| Variant | kcat (glucosamine-6-phosphate [1]) [s⁻¹] | KM (glucosamine-6-phosphate [2]) [µM] | self-cleavage kobs at 40 uM GlcN6P (glucosamine-6-phosphate [3]) [s⁻¹] | self-cleavage kobs at 160 uM GlcN6P (glucosamine-6-phosphate [4]) [s⁻¹] | self-cleavage kobs at 640 uM GlcN6P (glucosamine-6-phosphate [5]) [s⁻¹] | self-cleavage kobs at 2500 uM GlcN6P (glucosamine-6-phosphate [6]) [s⁻¹] | self-cleavage kobs at 10000 uM GlcN6P (glucosamine-6-phosphate [7]) [s⁻¹] |
| --- | --- | --- | --- | --- | --- | --- | --- |
| A12U U69G | 0.000139 ± 1.8e-05 | 437 ± 200 | 2.68e-05 ± 8.8e-06 | 2.7e-05 ± 8.8e-06 | 9.2e-05 ± 1e-05 | 0.000109 ± 1e-05 | 0.000145 ± 1.5e-05 |
| C11U G66A | 0.000908 ± 0.00021 | 2510 ± 1100 | – | – | 0.000205 ± 6e-05 | 0.000661 ± 0.00015 | 0.000673 ± 0.00012 |
| G7U C8G C50A | 2.71e-05 ± 5.9e-06 | – | – | – | – | – | – |
| A12C C70G | 0.000232 ± 6.8e-05 | – | – | 7.74e-05 ± 1.7e-05 | 0.000119 ± 1.1e-05 | 0.000154 ± 1.8e-05 | 0.000352 ± 4.1e-05 |
| A12C C70A | 0.000198 ± 2.9e-05 | 1030 ± 390 | – | – | 6.98e-05 ± 1e-05 | 0.000174 ± 1.9e-05 | 0.000162 ± 2e-05 |
| A12C U46C | 0.00298 ± 0.0008 | 1680 ± 590 | 7.98e-05 ± 1.5e-05 | 0.000265 ± 5.1e-05 | 0.000606 ± 0.00017 | 0.00273 ± 0.00089 | 0.0026 ± 0.00058 |
| A12G A52U | < 1e-05 | – | < 1e-05 | – | < 1e-05 | – | – |
| A12G C58G C67A | 0.000115 ± 2.4e-05 | – | – | – | 0.000136 ± 3.6e-05 | 9.94e-05 ± 2.1e-05 | – |
| C10U A15G | 2.54e-05 ± 2e-06 | 4700 ± 910 | < 1e-05 | – | – | – | – |
| G13A | 0.00142 ± 0.00018 | 4830 ± 750 | 1.56e-05 ± 1.7e-06 | 4.65e-05 ± 1.7e-06 | 0.000162 ± 3.8e-06 | 0.00057 ± 3.3e-05 | 0.000945 ± 3.6e-05 |
| C11G U30A | 4.67e-05 ± 2.4e-06 | – | – | – | – | – | – |
| G9U C61A | 0.00139 ± 0.00021 | 1500 ± 360 | 4.72e-05 ± 9.6e-06 | 0.00013 ± 2.7e-05 | 0.000373 ± 5.1e-05 | 0.000927 ± 0.00013 | 0.00121 ± 0.00023 |
| G7U C16A G37A A53U C71A | 1.25e-05 ± 4.6e-06 | – | – | – | – | – | – |
| A12G G66A | 0.000586 ± 0.00018 | 3600 ± 1700 | – | 2.09e-05 ± 9.7e-06 | 0.000105 ± 1.1e-05 | 0.000195 ± 2.3e-05 | 0.000496 ± 5.7e-05 |
| A12G G66C | 8.51e-05 ± 6.1e-06 | 857 ± 290 | – | – | 4.42e-05 ± 1.9e-05 | 5.86e-05 ± 1.3e-05 | 8.08e-05 ± 1.3e-05 |
| C11U C71A | 0.000412 ± 2.6e-05 | 1790 ± 200 | – | 4.15e-05 ± 1.7e-05 | 0.000106 ± 1.5e-05 | 0.00024 ± 4.4e-05 | 0.000354 ± 6.1e-05 |
| G13A A53G | 0.00138 ± 0.00018 | 4280 ± 820 | – | 6.12e-05 ± 1.3e-05 | 0.00017 ± 2e-05 | 0.000498 ± 5.7e-05 | 0.000981 ± 0.00011 |

| Variant | kcat (glucosamine-6-phosphate [1]) [s⁻¹] | KM (glucosamine-6-phosphate [2]) [µM] | self-cleavage kobs at 40 uM GlcN6P (glucosamine-6-phosphate [3]) [s⁻¹] | self-cleavage kobs at 160 uM GlcN6P (glucosamine-6-phosphate [4]) [s⁻¹] | self-cleavage kobs at 640 uM GlcN6P (glucosamine-6-phosphate [5]) [s⁻¹] | self-cleavage kobs at 2500 uM GlcN6P (glucosamine-6-phosphate [6]) [s⁻¹] | self-cleavage kobs at 10000 uM GlcN6P (glucosamine-6-phosphate [7]) [s⁻¹] |
| --- | --- | --- | --- | --- | --- | --- | --- |
| A12U A42G | 0.0985 ± 0.045 | – | 0.00296 ± 0.00037 | 0.00676 ± 0.0033 | 0.0249 ± 0.006 | – | 0.116 ± 0.044 |
| A12G U55C | 0.00114 ± 0.00024 | 4740 ± 1400 | – | 4.44e-05 ± 7.8e-06 | 0.000118 ± 1.7e-05 | 0.000461 ± 7.4e-05 | 0.000755 ± 9.7e-05 |
| C11U G40C | 0.000197 ± 1.3e-05 | 2960 ± 470 | – | – | 3.93e-05 ± 1.6e-05 | 8.9e-05 ± 1.4e-05 | 0.000153 ± 1.9e-05 |
| C8U G51U C70U | 1.2e-05 ± 2.2e-06 | – | < 1e-05 | – | – | – | – |
| C8A C71G | 1.09e-05 ± 3.7e-06 | – | – | – | – | – | – |
| A12U G40U U45G | 0.00175 ± 0.00051 | – | 0.000216 ± 3.5e-05 | – | 0.000743 ± 0.00024 | 0.00239 ± 0.0011 | 0.00207 ± 0.00036 |
| C11U A53U | 0.00137 ± 0.0004 | – | – | 0.000141 ± 3.8e-05 | – | 0.000587 ± 0.00017 | 0.00125 ± 0.00023 |
| C10G G32C | < 1e-05 | – | – | < 1e-05 | < 1e-05 | – | – |
| A12C U31A | 0.0133 ± 0.004 | 4520 ± 1700 | 0.000142 ± 1.7e-05 | 0.000363 ± 7.2e-05 | 0.00151 ± 0.00035 | 0.00434 ± 0.00085 | 0.00974 ± 0.0017 |
| C11G G32A U69G | 3.08e-05 ± 7e-06 | – | – | – | – | – | – |
| A12U A52U | 0.00174 ± 0.00012 | 4090 ± 490 | – | 7.11e-05 ± 2e-05 | 0.000233 ± 3.8e-05 | 0.000681 ± 9.8e-05 | 0.00123 ± 0.00011 |
| A6U C16A | 1.85e-05 ± 5.8e-06 | – | – | – | – | – | – |
| A12U G13A | 0.0015 ± 0.00056 | – | – | – | 8.57e-05 ± 1.1e-05 | 0.000208 ± 3.6e-05 | 0.000715 ± 9.5e-05 |
| C11U G40U C70U | 0.000108 ± 1.1e-06 | 1100 ± 48 | – | – | – | 7.62e-05 ± 2.5e-05 | 9.73e-05 ± 2e-05 |
| A12C A42U | 0.000217 ± 1.2e-05 | 1230 ± 230 | – | 3.19e-05 ± 1e-05 | 6.67e-05 ± 1.1e-05 | 0.00016 ± 2.1e-05 | 0.000192 ± 1.2e-05 |
| A12C A42G | 0.0188 ± 0.0076 | – | 0.00118 ± 0.00019 | 0.00222 ± 0.00053 | 0.00579 ± 0.0016 | 0.0085 ± 0.0026 | 0.0248 ± 0.0036 |
